Laboratory results taken from US20250215104A1 (WALDEN BIOSCIENCES, published 2025).
Residue numbers refer to the chain shown, from its start.

B1: suPAR_DB03_A09 (scFv, V domains shown)
VH: QVQLVQSGAEVKKPGASVKVSCKASGYTFTSHYVHWVRQAPGQGLEWMGWIDHSNGSTIYDQKFQGRVTMTRDTSTSTVYMELSSLRSEDTAVYYCARGYDVDWFVYWGQGTLVTVSS
VL: DIQMTQSPSSLSASVGDRVTITCSARQSISYMYWYQQKPGKAPKLLIYRTSNLASGVPSRFSGSGSGTDFTLTISSLQPEDFATYYCQQYHSYPPTFGGGTKVEIK
notes: screened as scFv
B2: suPAR_DB03_E09 (scFv, V domains shown)
VH: QVQLVQSGAEVKKPGASVKVSCKASGFNIKDYYIHWVRQAPGQGLEWMGWIDPNSGGTNYAQKFQGRVTMTRDTSTSTVYMELSSLRSEDTAVYYCARGYDVDWFVYWGQGTLVTVSS
VL: B1 VL with S24R, I29V
notes: screened as scFv
B3: suPAR_DB03_C02 (scFv, V domains shown)
VH: B1 VH with T28S, S31N, H32Y, V34I, S54E, S57N, Y100N
VL: B1 VL with Q27S, I29V
notes: screened as scFv
B4: suPAR_DB03_D10 (scFv, V domains shown)
VH: B1 VH with H32Y, V34M, H53P, S54E, S57N, D61A
VL: B1 VL with Q27S, I29V, A54Q
notes: screened as scFv
B5: suPAR_DB03_B09 (scFv, V domains shown)
VH: B2 VH with F27Y, D31S, N54E, S55G, G57S, N59I, A61D
VL: B1 VL with Q27S, I29V
notes: screened as scFv
B6: suPAR_DB03_D04 (scFv, V domains shown)
VH: B1 VH with S31N, H32Y, V34M, H53P, S54E
VL: B1 VL with Q27S, I29V, Y90S
notes: screened as scFv
B7: suPAR_DB03_C10 (scFv, V domains shown)
VH: B1 VH with H32Y, V34M, S54E, N55G, D61A, R98S
VL: B1 VL with Q27S, I29V
notes: screened as scFv
B8: suPAR_DB03_D12 (scFv, V domains shown)
VH: B1 VH with T30S, S31N, H32Y, V34M, H53P, S54E, S57N, D61A
VL: B1 VL with S24R, Q27S, I29V, A54Q
notes: screened as scFv
B9: suPAR_DB03_B08 (scFv, V domains shown)
VH: B1 VH with T28A, S31G, H32Y, V34M, S54E, S57N
VL: B1 VL with S24R, I29V
notes: screened as scFv
B10: suPAR_DB03_A11 (scFv, V domains shown)
VH: B2 VH with F27Y, N28T, I29F, K30T, D31S, I34M, M48V, I51M, N59S
VL: B1 VL with Q27S, I29V
notes: screened as scFv
B11: suPAR_DB03_E03 (scFv, V domains shown)
VH: B1 VH with F29V, S31N, H32Y, V34M, S54E, S57N
VL: B1 VL with S24R, Q27S, I29V
notes: screened as scFv
B12: suPAR_DB03_D05 (scFv, V domains shown)
VH: B2 VH with F27D, I29F, K30T, D31T, I34M, N54E, S55N, G57N, N59I
VL: B1 VL with Q27S, I29V
notes: screened as scFv
B13: suPAR_DB03_B04 (scFv, V domains shown)
VH: B2 VH with F27Y, N28T, I29F, K30T, D31G, I34M, M48I, D52T, N54D, N59V
VL: B1 VL with R26S, Q27S
notes: screened as scFv
B14: suPAR_DB03_C07 (scFv, V domains shown)
VH: B1 VH with S31N, H32Y, S54E
VL: B1 VL with Q27S, I29V
notes: screened as scFv
B15: suPAR_DB03_A10 (scFv, V domains shown)
VH: B1 VH with T30S, S31N, H32Y, V34M, S54E, D61A
VL: B1 VL with Q27S, I29V
notes: screened as scFv
B16: suPAR_DB03_C12 (scFv, V domains shown)
VH: B1 VH with Y27N, S31N, H32Y, V34M, S54E, S57N, I59S
VL: B1 VL with Q27S, I29V
notes: screened as scFv
B17: suPAR_DB03_E08 (scFv, V domains shown)
VH: B1 VH with S31H, H32Y, V34M, H53P, S54E, N55G
VL: B1 VL with S24R, R26S, Q27S, I29V
notes: screened as scFv
B18: suPAR_DB03_C09 (scFv, V domains shown)
VH: B1 VH with H32Y, V34M, S54E
VL: B1 VL with I29V
notes: screened as scFv
B19: suPAR_DB03_B06 (scFv, V domains shown)
VH: B2 VH with F27Y, K30T, N54E, S55N, G57S, N59I, A61D
VL: B1 VL with Q27S, I29V
notes: screened as scFv
B20: suPAR_DB03_D01 (scFv, V domains shown)
VH: B2 VH with I51M
VL: B1 VL with Q27S, I29V
notes: screened as scFv
B21: suPAR_DB03_D06 (scFv, V domains shown)
VH: B1 VH with T28S, S31N, H32Y, V34M, S54E, S57N, I59S, D61A
VL: B1 VL with Q27S, I29V
notes: screened as scFv
B22: suPAR_DB03_D03 (scFv, V domains shown)
VH: B1 VH with S31G, H32Y, V34I, H53P, S54E, S57N, D61A
VL: B1 VL with S24R, I29V
notes: screened as scFv
B23: suPAR_DB03_B05 (scFv, V domains shown)
VH: B1 VH with H32Y, V34M, H53P, S54E, S57N, V102I
VL: B1 VL with I29V
notes: screened as scFv
B24: suPAR_DB03_B02 (scFv, V domains shown)
VH: B1 VH with Y27D, H32Y, V34M, S54E, I59S
VL: B1 VL with Q27S, I29V
notes: screened as scFv
B25: suPAR_DB03_D02 (scFv, V domains shown)
VH: B1 VH with S31R, H32Y, V34L, H53P, S54E, S57N, D61A
VL: B1 VL with Q27S, I29V
notes: screened as scFv
B26: suPAR_DB03_E06 (scFv, V domains shown)
VH: B1 VH with S31G, H32Q, S54E, S57N
VL: B1 VL with Q27S, I29V
notes: screened as scFv
B27: suPAR_DB03_C01 (scFv, V domains shown)
VH: B1 VH with Y27S, F29S, S31D, S54E, N55G, D61A
VL: B1 VL with Q27S, I29V
notes: screened as scFv
B28: suPAR_DB03_D09 (scFv, V domains shown)
VH: B1 VH with S31G, H32Y, V34M, S54E, D61A
VL: B1 VL with Q27S, I29V, A54Q
notes: screened as scFv
B29: suPAR_DB03_C03 (scFv, V domains shown)
VH: B1 VH with S31G, H32Y, V34M, S54E, I59S, R98S
VL: B1 VL with Q27S, I29V, R49G, T50A, A54Q
notes: screened as scFv
B30: suPAR_DB03_E02 (scFv, V domains shown)
VH: B1 VH with T28N, S31G, H32Y, V34I, S54E, S57N, D61A
VL: B1 VL with Q27S, I29V
notes: screened as scFv
B31: suPAR_DB03_C06 (scFv, V domains shown)
VH: B1 VH with S31D, H32Y, S54E, N55G, I59S
VL: B1 VL with R26S, Q27S, I29V
notes: screened as scFv
B32: suPAR_DB03_E04 (scFv, V domains shown)
VH: B1 VH with S31G, V34M, H53P, S54E
VL: B1 VL with Q27S, I29V
notes: screened as scFv
B33: suPAR_DB03_B10 (scFv, V domains shown)
VH: B1 VH with S31G, H32Y, V34M, S54E, S57N, Y100T
VL: B1 VL with R26S, Q27S
notes: screened as scFv
B34: suPAR_DB03_C08 (scFv, V domains shown)
VH: B1 VH with Y27G, S31N, H32Y, V34M, S54E, D61A
VL: B1 VL with Q27S, I29V, N52S
notes: screened as scFv
B35: suPAR_DB03_B01 (scFv, V domains shown)
VH: B1 VH with Y27N, S31G, V34M, H35Q, S54E, S57N, I59S, D61A
VL: B1 VL with Q27S, I29V
notes: screened as scFv
B36: suPAR_DB03_D08 (scFv, V domains shown)
VH: B1 VH with S31G, H32Y, V34M, H53P, S54E
VL: B1 VL with I29V
notes: screened as scFv
B37: suPAR_DB03_D07 (scFv, V domains shown)
VH: B1 VH with Y27N, S31N, H32Y, H53P, S57N
VL: B1 VL with Q27S, I29V
notes: screened as scFv
B38: suPAR_DB03_C04 (scFv, V domains shown)
VH: B2 VH with N54E, S55N, G57S, N59I, A61D
VL: B1 VL with R26S, Q27S, N52S
notes: screened as scFv

biological target: T1, human soluble urokinase plasminogen activator receptor (hsuPAR) (human, UniProt Q03405 23-303, limits assumed); test: BLI (Octet) off-rate screen of scFv clones
T1 construct: Target antigen of the off-rate screen; also called human suPAR; rhuPAR-His
T1 sequence (Q03405 23-303 limits assumed): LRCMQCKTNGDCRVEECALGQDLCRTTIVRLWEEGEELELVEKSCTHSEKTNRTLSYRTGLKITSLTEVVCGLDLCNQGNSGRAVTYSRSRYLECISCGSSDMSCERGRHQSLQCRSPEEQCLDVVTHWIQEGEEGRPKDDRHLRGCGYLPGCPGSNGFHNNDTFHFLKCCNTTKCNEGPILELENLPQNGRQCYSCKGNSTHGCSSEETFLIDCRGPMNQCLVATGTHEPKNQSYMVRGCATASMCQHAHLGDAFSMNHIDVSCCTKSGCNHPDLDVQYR

koff [s⁻¹] | Binder
0.00132 | B1
0.00426 | B2
0.00534 | B3
0.00527 | B4
0.00421 | B5
0.00325 | B6
0.00452 | B7
0.0057 | B8
0.00133 | B9
0.00181 | B10
0.00231 | B11
0.00482 | B12
0.00197 | B13
0.00166 | B14
0.000838 | B15
0.00396 | B16
0.005 | B17
0.00103 | B18
0.00352 | B19

koff [s⁻¹] | Binder
0.00416 | B20
0.00295 | B21
0.00258 | B22
0.00536 | B23
0.0024 | B24
0.00755 | B25
0.0044 | B26
0.00366 | B27
0.000746 | B28
0.00464 | B29
0.00358 | B30
0.00318 | B31
0.00556 | B32
0.004 | B33
0.00103 | B34
0.00297 | B35
0.00458 | B36
0.00308 | B37
0.00301 | B38

biological target: T2, cynomolgus suPAR (cynomolgus, UniProt Q9GK78 23-303, limits assumed); test: BLI (Octet) off-rate screen of scFv clones
T2 construct: Target antigen of the off-rate screen; also called cynomolgus uPAR; cynoPLAUR-His
T2 sequence (Q9GK78 23-303 limits assumed): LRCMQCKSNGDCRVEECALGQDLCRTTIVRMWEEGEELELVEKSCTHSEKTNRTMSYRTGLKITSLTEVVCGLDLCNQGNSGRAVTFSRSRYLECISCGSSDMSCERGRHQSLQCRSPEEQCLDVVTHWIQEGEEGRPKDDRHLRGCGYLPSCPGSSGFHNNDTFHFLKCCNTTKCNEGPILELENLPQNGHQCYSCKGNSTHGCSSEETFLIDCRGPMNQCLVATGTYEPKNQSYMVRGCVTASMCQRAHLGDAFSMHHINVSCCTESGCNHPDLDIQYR

koff [s⁻¹] | Binder
0.000254 | B1
0.000132 | B2
0.000366 | B3
0.000286 | B4
0.000126 | B5
0.0059 | B6
0.000301 | B7
0.000263 | B8
0.000226 | B9
7.99e-05 | B10
0.000132 | B11
3.55e-05 | B12
4.52e-07 | B13
5.78e-05 | B14
0.000685 | B15
7.59e-05 | B16
0.00025 | B17
3.75e-07 | B18
1.08e-05 | B19

koff [s⁻¹] | Binder
8.49e-05 | B20
0.000388 | B21
0.000156 | B22
0.000126 | B23
0.000148 | B24
0.000241 | B25
7.36e-05 | B26
0.000165 | B27
0.000508 | B28
0.00108 | B29
0.000258 | B30
0.000189 | B31
0.000669 | B32
0.000138 | B33
9.98e-05 | B34
0.000343 | B35
0.000482 | B36
0.000163 | B37
4.37e-07 | B38
